Results published in patent US20200262885A1 (ANTAROS MEDICAL, published 2020).

B1: SEQ ID NO: 12 (peptide)
peptide: XSQGTFTSDXSKQXESRRAQEFIEWLLXGGPESGAPPPSX
modifications: Tza at 1; Tle at 10; Nle at 14; Bal at 28; Cys(VS-DO3A(Ga)) at 40; C-terminal amide

Target: human GLP-1 receptor (human, UniProt P43220 24-463)
Assay: cell-based or functional assay

Molecule | EC50 hGLP-1 R [pM]
XSQGTFTSDYSKQLESRRAQEFIEWLLAGGPESGAPPPSX (Tza at 1; Cys(VS-DO3A(Ga)) at 40; C-terminal -OH) [SEQ ID NO: 80] | 5130 pM
XXQGTFTSDYSKQLDEQRAQEFIEWLLATGPESGAPPPSX (Tza at 1; D-Ser at 2; Cys(VS-DO3A(Ga)) at 40; C-terminal amide) [SEQ ID NO: 86] | 115000 pM
XSQGTFTSDYSKQLESRRAQEFIEWLLAGGPESGAPPPSX (Tza at 1; Cys(mal-DOTA(Ga)) at 40; C-terminal amide) [SEQ ID NO: 7] | 7530 pM
XSQGTFTSDYSKQLESRRAQEFIEWLLAGGPESGAPPPSX (Tza at 1; Cys(VS-DO3A(Ga)) at 40; C-terminal amide) [SEQ ID NO: 8] | 4130 pM
XSQGTFTSDYSKQLESRRAQEFIEWLLAGGPESGAPPPSX (Tza at 1; Cys(mal-NOTA(Ga)) at 40; C-terminal amide) [SEQ ID NO: 9] | 4200 pM
B1 | 12900 pM
XSQGTFXSDLSKQXESRRAQDFIEWLLATGPESGAPPPSX (Tza at 1; Aib at 7; Nle at 14; Cys(mal-NOTA) at 40; C-terminal amide) [SEQ ID NO: 16] | 1e+07 pM
XSQGTFXSDLSKQXESRRAQDFIEWLLATGPESGAPPPSX (Tza at 1; Aib at 7; Nle at 14; Cys(mal-NODAGA) at 40; C-terminal amide) [SEQ ID NO: 17] | 1e+07 pM
XSQGTFXSDLAKQXESRRAQDFIEWLLATGPESGAPPPSX (Tza at 1; Aib at 7; Nle at 14; Cys(VS-DO3A) at 40; C-terminal amide) [SEQ ID NO: 31] | 1e+07 pM
XSQGTFTSDYSKQLESRRAQEFIEWLLATGPESGAPPPSX (Tza at 1; Cys(VS-DO3A(Ga)) at 40; C-terminal amide) [SEQ ID NO: 34] | 18800 pM
XSQGTFTSDISKQXESRRAQEFIEWLLATGPESGAPPPSX (Tza at 1; Nle at 14; Cys(VS-DO3A(Ga)) at 40; C-terminal amide) [SEQ ID NO: 36] | 65300 pM
XSQGTFTSDTSKQLESRRAQEFIEWLLATGPESGAPPPSX (Tza at 1; Cys(VS-DO3A) at 40; C-terminal amide) [SEQ ID NO: 47] | 1e+07 pM
XSQGTFTSDTSKQLESRRAQEFIEWLLATGPESGAPPPSX (Tza at 1; Cys(VS-DO3A(Ga)) at 40; C-terminal amide) [SEQ ID NO: 48] | 297000 pM
XSQGTFXSDLSKQXESRRAKDFIEWLLATGPESGAPPPSX (Tza at 1; Aib at 7; Nle at 14; Cys(VS-DO3A) at 40; C-terminal amide) [SEQ ID NO: 51] | 1e+07 pM

Target: human glucagon receptor (human, UniProt P47871 26-477)
Assay: cell-based or functional assay

Molecule | EC50 hGLUC R | EC50 hGLUC R [pM]
HSQGTFTSDYSKYLDSRRAQDFVQWLM^27-N-T-C(VS-DO3A)-NH2 (peptide) | 0.7 pM | 
XSQGTFTSDYSKQLESRRAQEFIEWLLAGGPESGAPPPSX (Tza at 1; Cys(VS-DO3A(Ga)) at 40; C-terminal -OH) [SEQ ID NO: 80] |  | 0.7 pM
XXQGTFTSDYSKQLDEQRAQEFIEWLLATGPESGAPPPSX (Tza at 1; D-Ser at 2; Cys(VS-DO3A(Ga)) at 40; C-terminal amide) [SEQ ID NO: 86] |  | 0.9 pM
XSQGTFTSDYSKQLESRRAQEFIEWLLAGGPESGAPPPSX (Tza at 1; Cys(mal-NOTA(Ga)) at 40; C-terminal amide) [SEQ ID NO: 9] |  | 1 pM
XSQGTFTSDYSKQLESRRAQEFIEWLLAGGPESGAPPPSX (Tza at 1; Cys(mal-NODAGA(Ga)) at 40; C-terminal amide) [SEQ ID NO: 10] |  | 0.9 pM
B1 |  | 0.7 pM
XSQGTFTSDYSKQLESRRAQEFIEWLLATGPESGAPPPSX (Tza at 1; Cys(VS-DO3A(Ga)) at 40; C-terminal amide) [SEQ ID NO: 34] |  | 0.8 pM
XSQGTFTSDYSRQLESRRAQEFIEWLLATGPESGAPPPSX (Tza at 1; Lys(VS-DO3A(Ga)) at 40; C-terminal amide) [SEQ ID NO: 44] |  | 0.8 pM
XSQGTFTSDTSKQLESRRAQEFIEWLLATGPESGAPPPSX (Tza at 1; Cys(VS-DO3A(Ga)) at 40; C-terminal amide) [SEQ ID NO: 48] |  | 60.1 pM
